The text below walks through data of patent publication US6750325 (CELLTECH R AND D, dated 2004).

This experiment deals with T1, CD3 antigen of the T-cell receptor-CD3 complex on human T cells (human, UniProt P07766 23-207).
T1 construct: whole, on cells; also called OKT3 antigen
Kind of experiment: antigen binding assay on CD3 positive cells, COS cell supernatant (cell line not restated).

Description: The procedure was as follows:
HUT 78 cells (human T cell line, CD3 positive) were maintained in culture. Monolayers of HUT 78 cells were prepared onto 96 well ELISA plates using poly-L-lysine and glutaraldehyde. Samples were added to the monolayers for 1 hour at room temperature. The plates were washed gently using PBS. F(ab')_2 goat anti-human IgG Fc (HRPO conjugated) or F(ab')_2 goat anti-mouse IgG Fc (HRPO conjugated) was added as appropriate for humanised or mouse samples. Substrate was added to reveal the reaction. The negative control for the cell-based assay was chimer B72.3. […] Binding was measured by the following procedure: HPB-ALL cells were harvested from tissue culture. Cells were incubated at 4° C. for 1 hour with various dilutions of test antibody, positive control antibody, or negative control antibody. The cells were washed once and incubated at 4° C. for 1 hour with an FITC-labelled goat anti-human IgG (Fc– specific, mouse absorbed). The cells were washed twice and analysed by cytofluorography. […] Cells incubated with mock-transfected COS cell supernatant, followed by the FITC-labelled goat anti-human IgG, provided the negative control. […] The samples were incubated for 1 hour at 4° C., washed twice and analysed by cytofluorography.

B1: fully CDR-grafted antibody kgL221A with gH341 (kgL221A/kgH341) (antibody, V domains shown)
VH: QVQLVESGGGVVQPGRSLRLSCSSSGYTFTRYTMHWVRQAPGKGLEWVAYINPSRGYTNYNQKFKDRFTISRDNSKNTLFLQMDSLRPEDTGVYFCARYYDDHYCLDYWGQGTTLTVSS
VL: QIVMTQSPSSLSASVGDRVTITCSASSSVSYMNWYQQTPGKAPKRWIYDTSKLASGVPSRFSGSGSGTDYTFTISSLQPEDIATYYCQQWSSNPFTFGQGTKLQIT
notes: Expression was very low; also called kgH221A/gH341; kgH221A/kgH341
For B1, the binding result was “no binding”.
